Test [1] concerns the target GDF8 (myostatin) (UniProt O14793). Nature of the test: SPR (Biacore T200), GDF8 amine-coupled, FST-Fab as analyte, single-cycle kinetics. On the technique in general: SPR reads the build-up and loss of mass on a sensor chip optically.
Test [2] concerns the target T1, Activin A (UniProt P08476 311-426).
T1 sequence (looked up): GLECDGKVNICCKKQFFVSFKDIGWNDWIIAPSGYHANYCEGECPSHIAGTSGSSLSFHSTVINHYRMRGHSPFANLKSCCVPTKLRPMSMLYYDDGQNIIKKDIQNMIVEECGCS
Kind of test: SPR (Biacore T200), FST-Fab captured on anti-F(ab')2, Activin A as analyte, 1:1 model. The procedure:
(§1) The binding kinetics of the fusion proteins to various targets (see below) were determined by surface plasmon resonance using a Biacore T200 (Cytiva). For each type of assay, kinetic parameters were determined using a 1:1 binding model using Biacore T200 Evaluation software (version 3.0).
(§2) For the assessment of binding to Activin A and Activin B (R&D Systems), a goat anti-human F(ab′)₂ fragment specific antibody (Jackson ImmunoResearch) was first immobilised on a CM5 Sensor Chip via amine coupling chemistry to a level of approximately 5000RU. Using a standard multi-cycle kinetic approach, each analysis cycle consisted of capture of FST-Fab to the anti-F(ab′)₂ surface followed by injection of analyte and finally surface regeneration using 60s injections of 50 mM HCl, and 5 mM NaOH. […] The binding response of a parallel blank surface was subtracted, and buffer blank injections were included to subtract instrument noise and drift.

Test [3] has as its target T2, Activin B (UniProt P09529 293-407).
T2 sequence (looked up): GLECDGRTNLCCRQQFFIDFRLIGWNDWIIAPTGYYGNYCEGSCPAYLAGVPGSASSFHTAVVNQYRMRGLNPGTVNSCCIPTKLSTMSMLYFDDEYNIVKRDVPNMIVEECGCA
Nature of the test: SPR (Biacore T200), FST-Fab captured on anti-F(ab')2, Activin B as analyte, 1:1 model. On the procedure: as §1, §2

The target in test [4] is T3, GDF11 (UniProt O95390 299-407). Nature of the test: cell-based or functional assay.
Test [5] deals with T1, Activin A. Kind of test: cell-based or functional assay.
For test [6], the target named is T2, Activin B. Kind of test: cell-based or functional assay.
For test [7], the target named is T4, GDF8 (myostatin) (UniProt O14793 267-375). Kind of test: cell-based or functional assay.
In test [8] the target is T3, GDF11. Nature of the test: cell-based or functional assay. This is another data set of the same source.
Test [9] deals with T1, Activin A. Nature of the test: cell-based or functional assay. The source holds these as a separate data set.
Test [10] addresses T2, Activin B. Kind of test: cell-based or functional assay. This is another data set of the same source.
For test [11], the target named is T4, GDF8 (myostatin). Nature of the test: cell-based or functional assay. This is another data set of the same source.
Test [12] has as its target T3, GDF11. Nature of the test: cell-based or functional assay. The source holds these as a separate data set.
Test [13] concerns the target T2, Activin B. Nature of the test: cell-based or functional assay. The source holds these as a separate data set.
Test [14] addresses T4, GDF8 (myostatin). Nature of the test: cell-based or functional assay. The source holds these as a separate data set.
For test [15], the target named is T4, GDF8 (myostatin). Kind of test: SPR (Biacore T200), GDF8 amine-coupled, FST-Fab as analyte, single-cycle kinetics. The procedure:
as §1
(§3) For the assessment of binding to GDF8 and GDF11 (R&D Systems), each one of GDF8 and GDF11 was immobilised by amine coupling chemistry to the surface of a CM5 sensorchip to achieve an immobilisation level of approximately 250RU. For both GDF8 and GDF11, analysis was conducted using a single-cycle kinetics approach with sequential 180s injections of FST-Fab at increasing concentrations (0.8, 4, 20, 100 and 500 nM) in HBS-EP+ running buffer (Cytiva) at 25° C. at a flow rate of 30 μl/min, followed by monitoring the dissociation for 1800s. The binding response of a parallel blank surface was subtracted, and a series of buffer blank injections were conducted to subtract instrument noise and drift.

Test [16] addresses T3, GDF11. Nature of the test: SPR (Biacore T200), GDF11 amine-coupled, FST-Fab as analyte, single-cycle kinetics. On the procedure:
as §1, §3

Another test addresses T5, Human Albumin (human, UniProt P02768 25-609).
T5 construct: Analyte in the Biacore albumin assay; also called human serum albumin; HSA
Kind of test: SPR (Biacore T200), fusion protein captured on anti-F(ab')2, albumin as analyte, 1:1 model. On the procedure:
as §1
For the assessment of binding to albumin: A goat anti-human F(ab′)2 fragment specific antibody (Jackson ImmunoResearch) was first immobilised on a CM5 Sensor Chip via amine coupling chemistry to a level of approximately 5000RU. Using a standard multi-cycle kinetic approach, each analysis cycle consisted of capture of the fusion protein to be tested to the anti-F(ab′)2 surface followed by injection of albumin and finally surface regeneration using 60s injections of 50 mM HCl, and 5 mM NaOH. […] The binding response of a parallel blank surface was subtracted and buffer blank injections were included to subtract instrument noise and drift.

Test [17] concerns the target T3, GDF11. Kind of test: cell-based or functional assay. This is another data set of the same source.
The target of test [18] is T1, Activin A. Kind of test: cell-based or functional assay. This is another data set of the same source.
The target in test [19] is T2, Activin B. Nature of the test: cell-based or functional assay. The source holds these as a separate data set.
For test [20], the target named is T4, GDF8 (myostatin). Nature of the test: cell-based or functional assay. This is another data set of the same source.
Test [21] concerns the target T1, Activin A. Nature of the test: cell-based or functional assay. This is another data set of the same source.

Where two headings read alike, the source gives them in different places.

The record followed here is patent publication US20260049126A1 (UCB, published 2026).

One may read the Kd as the equilibrium constant for the complex coming apart. Low readings indicate tighter binding, high ones weaker binding. Turning to FST315-Fab, the Kd was 0.15 nM with GDF8 (myostatin) [1], 0.2 nM with Activin A [2] and 0.069 nM in the test with Activin B [3].

As for FST288-Fab, the Kd amounted to 0.24 nM with GDF8 (myostatin) [1], 0.032 nM in the test with Activin A [2] and 0.071 nM with Activin B [3].

B1: FST315HBM-Fab (other)
heavy: GNCWLRQAKNGRCQVLYKTELSKEECCSTGRLSTSWTEEDVNDNTLFKWMIFNGGAPNCIPCKETCENVDCGPGKACRMNAANKPRCVCAPDCSNITWKGPVCGLDGKTYRNECALLKARCKEQPELEVQYQGRCKKTCRDVFCPGSSTCVVDQTNNAYCVTCNRICPEPASSEQYLCGNDGVTYSSACHLRKATCLLGRSIGLAYEGKCIKAKSCEDIQCTGGKKCLWDFKVGRGRCSLCDELCPDSKSDEPVCASDNATYASECAMKEAACSSGVLLEVKHSGSCNSISEDTEEEEEDEDQDYSFPISSILEWSGGGGSEVQLLESGGGLVQPGGSLRLSCAVSGIDLSNYAINWVRQAPGKGLEWIGIIWASGTTFYATWAKGRFTISRDNSKNTVYLQMNSLRAEDTAVYYCARTVPGYSTAPYFDLWGQGTLVTVSSASTKGPSVFPLAPSSKSTSGGTAALGCLVKDYFPEPVTVSWNSGALTSGVHTFPAVLQSSGLYSLSSVVTVPSSSLGTQTYICNVNHKPSNTKVDKKVEPKSC
light: DIQMTQSPSSVSASVGDRVTITCQSSPSVWSNFLSWYQQKPGKAPKLLIYEASKLTSGVPSRFSGSGSGTDFTLTISSLQPEDFATYYCGGGYSSISDTTFGGGTKVEIKRTVAAPSVFIFPPSDEQLKSGTASVVCLLNNFYPREAKVQWKVDNALQSGNSQESVTEQDSKDSTYSLSSTLTLSKADYEKHKVYACEVTHQGLSSPVTKSFNRGEC
notes: paired with the Fab light chain; also called FST-Fab1; FST-Fab 1
B1: the “fold potency against the parent FST315WT, Smad2/3 reporter gene assay” value in the test with GDF11 [4] was 2 fold; with Activin A [5] it was 3 fold; with Activin B [6], 3 fold; with GDF8 (myostatin) [7], 2 fold. In addition, the “IC50 (geomean), Smad2/3 reporter gene assay, HEK-Blue TGFb cells” value (“IC50 (geomean)” for short) in the test with GDF11 [8] was 4.24 nM; with Activin A [9], 0.1 nM; with Activin B [10], 0.46 nM; with GDF8 (myostatin) [11], 1.4 nM. Further, the “IC50 (read off the curve)” value with GDF11 [12] was ~2 nM; with Activin B [13], ~0.6 nM; with GDF8 (myostatin) [14] it was ~1 nM. Further, the Kd in the test with GDF8 (myostatin) [15] amounted to 2.3 nM; with GDF11 [16], 1.25 nM; in the test with Activin A [2], 0.011 nM; with Activin B [3], 0.011 nM; with Human Albumin, 2.6 nM.

B2: FST288WT (other)
chain: GNCWLRQAKNGRCQVLYKTELSKEECCSTGRLSTSWTEEDVNDNTLFKWMIFNGGAPNCIPCKETCENVDCGPGKKCRMNKKNKPRCVCAPDCSNITWKGPVCGLDGKTYRNECALLKARCKEQPELEVQYQGRCKKTCRDVFCPGSSTCVVDQTNNAYCVTCNRICPEPASSEQYLCGNDGVTYSSACHLRKATCLLGRSIGLAYEGKCIKAKSCEDIQCTGGKKCLWDFKVGRGRCSLCDELCPDSKSDEPVCASDNATYASECAMKEAACSSGVLLEVKHSGSCN
For the molecule B2, the “IC50 (geomean)” value in the test with GDF11 [8] was determined as 0.77 nM; with Activin A [9] it was 0.14 nM; with Activin B [10], 0.45 nM; with GDF8 (myostatin) [11], 0.73 nM. For the same molecule, the “IC50 (read off the curve)” value with GDF11 [17] was ~2 nM; in the test with Activin A [18], ~0.4 nM; with Activin B [19], ~0.5 nM; with GDF8 (myostatin) [20], ~2 nM.

B3: FST315WT (other)
chain: GNCWLRQAKNGRCQVLYKTELSKEECCSTGRLSTSWTEEDVNDNTLFKWMIFNGGAPNCIPCKETCENVDCGPGKKCRMNKKNKPRCVCAPDCSNITWKGPVCGLDGKTYRNECALLKARCKEQPELEVQYQGRCKKTCRDVFCPGSSTCVVDQTNNAYCVTCNRICPEPASSEQYLCGNDGVTYSSACHLRKATCLLGRSIGLAYEGKCIKAKSCEDIQCTGGKKCLWDFKVGRGRCSLCDELCPDSKSDEPVCASDNATYASECAMKEAACSSGVLLEVKHSGSCNSISEDTEEEEEDEDQDYSFPISSILEW
On to B3, for which the “IC50 (geomean)” value with GDF11 [8] was 8.37 nM; with Activin A [9], 0.31 nM; with Activin B [10], 1.57 nM; in the test with GDF8 (myostatin) [11], 3.08 nM. Besides, the “IC50 (read off the curve)” value with GDF11 [12] was ~6 nM; with Activin A [21] it was ~0.4 nM; in the test with Activin B [13] it was ~2 nM; with GDF8 (myostatin) [14] it was ~3 nM.
